Laboratory results from US20040175731, “Methods and products for treating staphylococcal infections” (The Brigham and Women's Hospital, Inc., published 2004).

Key:
IcaR [1] = biological target: T1, IcaR (Staphylococcus aureus, UniProt Q9RQQ0 SEQ:1-186); assay: EMSA; on ice; competed by 100x specific competitor; settings: tags: N-terminal His6 (pCRT7-NT); chain copies: 2; label: 32P
T1 sequence: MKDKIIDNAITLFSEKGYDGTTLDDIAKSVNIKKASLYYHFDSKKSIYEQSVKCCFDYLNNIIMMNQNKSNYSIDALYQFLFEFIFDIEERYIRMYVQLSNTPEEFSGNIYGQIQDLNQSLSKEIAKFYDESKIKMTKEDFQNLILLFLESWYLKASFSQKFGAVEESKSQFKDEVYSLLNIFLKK

TcaR [2] = biological target: T2, TcaR (Staphylococcus aureus, UniProt Q9F4G3 Q9F4G3:1-151); assay: footprint; data not shown; multiple sites protected, specific and high affinity; settings: chain copies: 2; label: 32P
IcaR [3] = biological target: T1, IcaR; assay: EMSA; no detectable difference from WT probe; settings: tags: N-terminal His6 (pCRT7-NT); chain copies: 2; label: 32P
TcaR [4] = biological target: T2, TcaR; assay: footprint; data not shown; protection much the same as WT; settings: chain copies: 2; label: 32P
IcaR [5] = biological target: T1, IcaR; assay: EMSA; data not shown; settings: tags: N-terminal His6 (pCRT7-NT); chain copies: 2; label: 32P
IcaR [6] = biological target: T1, IcaR; assay: EMSA; recombinant IcaR failed to bind either short probe; settings: tags: N-terminal His6 (pCRT7-NT); chain copies: 2; label: 32P

T2 sequence (Q9F4G3 whole entry, one chain of several): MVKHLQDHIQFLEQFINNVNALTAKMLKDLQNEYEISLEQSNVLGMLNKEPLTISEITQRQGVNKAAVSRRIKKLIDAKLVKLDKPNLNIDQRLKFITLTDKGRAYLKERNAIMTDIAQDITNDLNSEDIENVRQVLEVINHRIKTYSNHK

B1: 198-bp WT ica promoter probe (dsDNA)
DNA 1: ATTGCGTTATCAATAATCTTATCCTTCAATTTTTATAACCCCCTACTGAAAATTAATCACACTATGTTACAGGAAAATTAAGTTGCAATTACAAATATTTCCGTTTAATTATAACAACAATCTATTGCAAATTAAAATACTATCAATTACCATATGGCTTACAACCTAACTAACGAAAGGTAGGTAAAGAAATTGCAA
DNA 2: TTGCAATTTCTTTACCTACCTTTCGTTAGTTAGGTTGTAAGCCATATGGTAATTGATAGTATTTTAATTTGCAATAGATTGTTGTTATAATTAAACGGAAATATTTGTAATTGCAACTTAATTTTCCTGTAACATAGTGTGATTAATTTTCAGTAGGGGGTTATAAAAATTGAAGGATAAGATTATTGATAACGCAAT
- binding result (IcaR [1]): binds
- binding result (TcaR [2]): binds

B2: 193-bp MUC ica promoter probe (dsDNA)
DNA 1: ATTGCGTTATCAATAATCTTATCCTTCAATTTTTATAACCCCCTACTGAAAATTAATCACACTATGTTACAGGAAAATTAAGTTGCAATTACAAACCGTTTAATTATAACAACAATCTATTGCAAATTAAAATACTATCAATTACCATATGGCTTACAACCTAACTAACGAAAGGTAGGTAAAGAAATTGCAA
DNA 2: TTGCAATTTCTTTACCTACCTTTCGTTAGTTAGGTTGTAAGCCATATGGTAATTGATAGTATTTTAATTTGCAATAGATTGTTGTTATAATTAAACGGTTTGTAATTGCAACTTAATTTTCCTGTAACATAGTGTGATTAATTTTCAGTAGGGGGTTATAAAAATTGAAGGATAAGATTATTGATAACGCAAT
- binding result (IcaR [3]): binds
- binding result (TcaR [4]): binds

B3: WTshort 53-bp (dsDNA)
DNA 1: CTATGTTACAGGAAAATTAAGTTGCAATTACAAATATTTCCGTTTAATTATAA
DNA 2: TTATAATTAAACGGAAATATTTGTAATTGCAACTTAATTTTCCTGTAACATAG
- binding result (IcaR [5]): no binding

B4: DEL/MUC 48-bp (dsDNA)
DNA 1: CTATGTTACAGGAAAATTAAGTTGCAATTACAAACCGTTTAATTATAA
DNA 2: TTATAATTAAACGGTTTGTAATTGCAACTTAATTTTCCTGTAACATAG
- binding result (IcaR [6]): no binding
